A word on the Kd: it is the constant that tells how readily two partners part at equilibrium. Read a low Kd as a tighter complex.

The results in this text go back to patent US20250129167A1 (University of Texas, published 2025).

One experiment has as its target T1, Cyno PD-L2-Fc (cyno, UniProt A0A2K5U5Z4 20-219).
T1 construct: not shown: Fc part of the fusion
T1 sequence: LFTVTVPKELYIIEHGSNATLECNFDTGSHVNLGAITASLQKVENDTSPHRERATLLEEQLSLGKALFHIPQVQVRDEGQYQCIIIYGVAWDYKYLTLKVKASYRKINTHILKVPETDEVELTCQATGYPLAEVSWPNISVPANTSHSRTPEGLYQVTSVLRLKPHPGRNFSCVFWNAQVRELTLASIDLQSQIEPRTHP
The experiment is described as follows: ForteBio Octet, IgG on sensor, Fc-fusion antigen in solution (avid). How it is done:
(§1) ForteBio KD measurements—ForteBio affinity measurements were performed on an Octet RED384 generally as previously described (sec, e.g., Estep et al., 2013). Briefly, ForteBio affinity measurements were performed by loading IgGs on-line onto AHQ sensors. Sensors were equilibrated off-line in assay buffer for 30 min and then monitored on-line for 60 seconds for baseline establishment. Sensors with loaded IgGs were exposed to 100 nM antigen for 3 minutes, and afterwards were transferred to assay buffer for 3 min for off-rate measurement. For monovalent affinity assessment Fabs were used instead of IgGs. For this assessment the unbiotinylated Fc fusion antigen was loaded on-line onto the AHQ sensors. Sensors were equilibrated off-line in assay buffer for 30 min and then monitored on-line for 60 seconds for baseline establishment. Sensors with loaded antigen were exposed to 100 nM Fab for 3 minutes, and afterwards they were transferred to assay buffer for 3 min for off-rate measurement. All kinetics were analyzed using the 1:1 binding model.
In general terms: BLI is a label-free optical method that tracks binding on a fibre tip over time.

Experiment [1] deals with T2, Human PD-L1-Fc (human, UniProt Q9NZQ7 19-238).
T2 construct: not shown: Fc part of the fusion
The description is as above. How it is done:
as §1

The target in a further experiment is T3, Cyno PD-L1-Fc (cyno, UniProt G7PSE7 19-238).
T3 construct: not shown: The Fc part of the fusion and any linker to it
T3 sequence (G7PSE7 entry or part of it limits assumed): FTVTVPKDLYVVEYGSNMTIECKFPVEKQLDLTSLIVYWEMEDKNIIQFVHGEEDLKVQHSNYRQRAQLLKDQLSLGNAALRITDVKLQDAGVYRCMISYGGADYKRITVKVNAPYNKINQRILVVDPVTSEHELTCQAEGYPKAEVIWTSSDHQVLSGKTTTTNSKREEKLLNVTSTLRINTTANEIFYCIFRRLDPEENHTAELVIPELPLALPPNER
The experiment is described as above. How it is done: as §1

The target of experiment [2] is T4, Human PD-L2-Fc (human, UniProt Q9BQ51 20-220).
T4 construct: not shown: Fc part of the fusion
T4 sequence: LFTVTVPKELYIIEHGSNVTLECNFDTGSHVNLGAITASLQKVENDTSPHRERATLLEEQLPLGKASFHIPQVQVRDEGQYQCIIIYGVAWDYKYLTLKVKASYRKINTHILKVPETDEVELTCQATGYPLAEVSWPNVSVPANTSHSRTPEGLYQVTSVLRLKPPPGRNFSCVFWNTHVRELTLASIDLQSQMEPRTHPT
The experiment is described as above. The procedure:
as §1

Experiment [3] addresses T5, Mouse PD-L1-Fc (mouse, UniProt Q9EP73 19-238, limits assumed).
T5 construct: also called murine PD-L1; not shown: Fc part of the fusion
The description is as above. The procedure: as §1

In experiment [4] the target is T6, Mouse PD-L2-Fc (mouse, UniProt Q9WUL5 20-219, limits assumed).
T6 construct: also called murine PD-L2; not shown: Fc part of the fusion
T6 sequence (looked up): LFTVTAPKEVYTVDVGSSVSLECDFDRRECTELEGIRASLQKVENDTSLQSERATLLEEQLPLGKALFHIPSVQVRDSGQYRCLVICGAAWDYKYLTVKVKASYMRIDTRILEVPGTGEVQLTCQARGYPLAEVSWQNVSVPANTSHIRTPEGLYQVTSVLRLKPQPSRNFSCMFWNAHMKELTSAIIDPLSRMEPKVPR
The experiment is described as follows: column 'Species cross-reactivity'.

Experiment [5] has as its target T7, PD-L2 on CHO-PD-L2 cells (Promega blockade system) (UniProt Q9BQ51 20-273, limits assumed).
T7 sequence (looked up): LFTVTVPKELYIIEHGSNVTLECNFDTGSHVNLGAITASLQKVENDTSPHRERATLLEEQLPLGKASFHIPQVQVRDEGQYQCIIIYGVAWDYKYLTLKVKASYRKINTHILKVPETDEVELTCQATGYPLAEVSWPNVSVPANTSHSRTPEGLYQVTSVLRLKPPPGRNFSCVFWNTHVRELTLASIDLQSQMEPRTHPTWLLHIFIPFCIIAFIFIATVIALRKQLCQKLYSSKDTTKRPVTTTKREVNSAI
The experiment is described as follows: cell-based or functional assay.

The target in experiment [6] is PD-L2 on CHO-PD-L1/PDL2 cells (Promega blockade system). The experiment is described as follows: cell-based or functional assay.
In experiment [7] the target is PD-L1 on CHO-PD-L1/PDL2 cells (Promega blockade system). The experiment in a line: cell-based or functional assay.
For experiment [8], the target named is T2, Human PD-L1-Fc. The experiment is described as follows: ForteBio Octet, Fc-fusion antigen on sensor, Fab in solution (monovalent). How it is done: as §1
The target in experiment [9] is T4, Human PD-L2-Fc. The experiment is described as above. The procedure:
as §1

The target in experiment [10] is T6, Mouse PD-L2-Fc. The experiment is described as follows: ForteBio Octet, IgG on sensor, Fc-fusion antigen in solution (avid). The procedure:
as §1

Experiment [11] has as its target T5, Mouse PD-L1-Fc. The experiment is described as follows: column 'Species cross-reactivity'.
Experiment [12] concerns the target PD-L1 on CHO-PD-L1 cells (Promega blockade system) (UniProt Q9NZQ7 19-290, limits assumed). The experiment in a line: cell-based or functional assay.

T5 sequence (Q9EP73 19-238 limits assumed): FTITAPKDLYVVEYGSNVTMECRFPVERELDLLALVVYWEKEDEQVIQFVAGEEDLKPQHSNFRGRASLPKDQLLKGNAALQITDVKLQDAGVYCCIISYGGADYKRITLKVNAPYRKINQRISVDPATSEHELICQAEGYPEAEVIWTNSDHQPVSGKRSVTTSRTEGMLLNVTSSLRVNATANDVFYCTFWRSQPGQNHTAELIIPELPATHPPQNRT

B1: ADI-20241 (antibody, V domains shown)
VH: QVQLVQSGAEVKKPGSSVKVSCKASGGTFSEYAIVWVRQAPGQGLEWMGGIIPLFGTANYAQKFQGRVTITADESTSTAYMELSSLRSEDTAVYYCARPLDRRIVAFDIWGQGTMVTVSS
VL: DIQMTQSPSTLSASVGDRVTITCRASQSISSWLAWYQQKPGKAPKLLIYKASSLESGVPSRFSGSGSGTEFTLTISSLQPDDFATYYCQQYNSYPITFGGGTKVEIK
notes: Vk1-05 common light chain; also called PD-L2-C2-1; cLC-PDL2 (22726)
B1: the Kd in the experiment with Cyno PD-L2-Fc was found to be 0.253 nM; with Human PD-L2-Fc [2] it was 0.487 nM. For the same molecule, the binding result is “no binding (tested: 100 nM)” with Human PD-L1-Fc [1], “no binding (tested: 100 nM)” with Cyno PD-L1-Fc, “no binding (tested: 100 nM)” with Mouse PD-L1-Fc [3] and “binds” with Mouse PD-L2-Fc [4]. Moreover, the “EC50 (read off the curve); luciferase fold induction, Promega CHO-PD-L2 / PD-1 Jurkat assay [Cont'd]” value in experiment [5] was about 0.2 nM.

B2: DiPDL candidate C2 (bispecific antibody, V domains shown)
VH 1: QVQLVQSGAEVKKPGSSVKVSCKASGGTFSSYFISWVRQAPGQGLEWMGQIIPNVGTANYAQKFQGRVTITADESTSTAYMELSSLRSEDTAVYYCARDQTAKAHLVWGQGTLVTVSS
VH 2: QVQLVQSGAEVKKPGSSVKVSCKASGGTFSEYAIVWVRQAPGQGLEWMGGIIPLFGTANYAQKFQGRVTITADESTSTAYMELSSLRSEDTAVYYCARPLDRRIVAFDIWGQGTMVTVSS
VL: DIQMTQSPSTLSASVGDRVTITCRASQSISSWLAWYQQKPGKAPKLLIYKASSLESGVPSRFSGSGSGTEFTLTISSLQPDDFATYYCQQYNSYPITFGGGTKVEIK
B2: the “EC50 (read off the curve); luciferase fold induction, Promega CHO-PD-L1/PD-L2 / PD-1 Jurkat assay, combined blockade of PD-L1 and PD-L2 [Cont'd]” value in [6] and in experiment [7] was about 0.6 nM in each case.

B3: ADI-20241 Fab (Fab, V domains shown)
VH: QVQLVQSGAEVKKPGSSVKVSCKASGGTFSEYAIVWVRQAPGQGLEWMGGIIPLFGTANYAQKFQGRVTITADESTSTAYMELSSLRSEDTAVYYCARPLDRRIVAFDIWGQGTMVTVSS
VL: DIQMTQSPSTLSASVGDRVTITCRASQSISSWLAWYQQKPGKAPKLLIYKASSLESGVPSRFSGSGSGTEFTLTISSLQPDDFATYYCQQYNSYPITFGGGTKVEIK
notes: also called cLC-PDL2 (22726) Fab
For the molecule B3, the binding result with Human PD-L1-Fc [8] is given as “no binding (tested: 100 nM)”. This molecule registered a dissociation constant Kd in the experiment with Human PD-L2-Fc [9] of 1.99 nM.

B4: ADI-20236 (antibody, V domains shown)
VH: QVQLVQSGAEVKKPGSSVKVSCKASGGTFSSHAISWVRQAPGQGLEWMGGIIPIFGWALYAQKFQGRVTITADESTSTAYMELSSLRSEDTAVYYCARPGDHRASHFDYWGQGTLVTVSS
VL: DIQMTQSPSSVSASVGDRVTITCRASQGISSWLAWYQQKPGKAPKLLIYAASSLQSGVPSRFSGSGSGTDFTLTISSLQPEDFATYYCQQANSFPITFGGGTKVEIK
notes: Vk1-12 common light chain; also called PD-L2-C1-1; cLC-PDL2 (22731)
On to B4, for which the Kd came out at 0.64 nM with Cyno PD-L2-Fc and 0.416 nM with Human PD-L2-Fc [2]. The binding result with Human PD-L1-Fc [1] is reported as “no binding (tested: 100 nM)”; with Cyno PD-L1-Fc, “no binding (tested: 100 nM)”; in the experiment with Mouse PD-L1-Fc [3], “no binding (tested: 100 nM)”; with Mouse PD-L2-Fc [4], “binds”. Besides, the “EC50 (read off the curve); luciferase fold induction, Promega CHO-PD-L2 / PD-1 Jurkat assay [Cont'd]” value in experiment [5] was about 0.2 nM.

B5: ADI-20225 Fab (Fab, V domains shown)
VH: QVQLVQSGAEVKKPGASVKVSCKASGGTFRSYAIQWVRQAPGQGLEWMGWIIPGFGTANYAQKFQGRVTITADESTSTAYMELSSLRSEDTAVYYCARELSHGGLSYWGQGTLVTVSS
VL: DIQMTQSPSSVSASVGDRVTITCRASQGISSWLAWYQQKPGKAPKLLIYAASSLQSGVPSRFSGSGSGTDFTLTISSLQPEDFATYYCQQANSFPITFGGGTKVEIK
notes: also called cLC-PDL1 (22731) Fab
With B5, the affinity with Human PD-L1-Fc [8], expressed as Kd, was 0.833 nM. Also, the binding result with Human PD-L2-Fc [9] is recorded as “no binding (tested: 100 nM)”.

B6: ADI-20236 Fab (Fab, V domains shown)
VH: QVQLVQSGAEVKKPGSSVKVSCKASGGTFSSHAISWVRQAPGQGLEWMGGIIPIFGWALYAQKFQGRVTITADESTSTAYMELSSLRSEDTAVYYCARPGDHRASHFDYWGQGTLVTVSS
VL: DIQMTQSPSSVSASVGDRVTITCRASQGISSWLAWYQQKPGKAPKLLIYAASSLQSGVPSRFSGSGSGTDFTLTISSLQPEDFATYYCQQANSFPITFGGGTKVEIK
notes: also called cLC-PDL2 (22731) Fab
For B6, the binding result with Human PD-L1-Fc [8] is “no binding (tested: 100 nM)”. Besides, in the experiment with Human PD-L2-Fc [9], binding was put at a Kd of 0.541 nM.

B7: DiPDL candidate C1 (bispecific antibody, V domains shown)
VH 1: QVQLVQSGAEVKKPGASVKVSCKASGGTFRSYAIQWVRQAPGQGLEWMGWIIPGFGTANYAQKFQGRVTITADESTSTAYMELSSLRSEDTAVYYCARELSHGGLSYWGQGTLVTVSS
VH 2: QVQLVQSGAEVKKPGSSVKVSCKASGGTFSSHAISWVRQAPGQGLEWMGGIIPIFGWALYAQKFQGRVTITADESTSTAYMELSSLRSEDTAVYYCARPGDHRASHFDYWGQGTLVTVSS
VL: DIQMTQSPSSVSASVGDRVTITCRASQGISSWLAWYQQKPGKAPKLLIYAASSLQSGVPSRFSGSGSGTDFTLTISSLQPEDFATYYCQQANSFPITFGGGTKVEIK
As to B7, the “EC50 (read off the curve); luciferase fold induction, Promega CHO-PD-L1/PD-L2 / PD-1 Jurkat assay, combined blockade of PD-L1 and PD-L2 [Cont'd]” value in [6] and in [7] was about 0.2 nM each time.

B8: ADI-20225 (antibody, V domains shown)
VH: QVQLVQSGAEVKKPGASVKVSCKASGGTFRSYAIQWVRQAPGQGLEWMGWIIPGFGTANYAQKFQGRVTITADESTSTAYMELSSLRSEDTAVYYCARELSHGGLSYWGQGTLVTVSS
VL: DIQMTQSPSSVSASVGDRVTITCRASQGISSWLAWYQQKPGKAPKLLIYAASSLQSGVPSRFSGSGSGTDFTLTISSLQPEDFATYYCQQANSFPITFGGGTKVEIK
notes: Vk1-12 common light chain; also called PD-L1-C1-1; cLC-PDL1 (22731)
On to B8, for which the binding result in the experiment with Cyno PD-L2-Fc is “no binding (tested: 100 nM)”; in the experiment with Human PD-L2-Fc [2], “no binding (tested: 100 nM)”; with Mouse PD-L2-Fc [10] it was “no binding (tested: 100 nM)”; in the experiment with Mouse PD-L1-Fc [11] it was “binds”. Moreover, the Kd was 0.223 nM in the experiment with Human PD-L1-Fc [1] and 0.237 nM with Cyno PD-L1-Fc. In addition, the “EC50 (read off the curve); luciferase fold induction, Promega CHO-PD-L1 / PD-1 Jurkat assay” value in [12] was about 0.1 nM.

B9: ADI-20230 (antibody, V domains shown)
VH: QVQLVQSGAEVKKPGSSVKVSCKASGGTFSSYFISWVRQAPGQGLEWMGQIIPNVGTANYAQKFQGRVTITADESTSTAYMELSSLRSEDTAVYYCARDQTAKAHLVWGQGTLVTVSS
VL: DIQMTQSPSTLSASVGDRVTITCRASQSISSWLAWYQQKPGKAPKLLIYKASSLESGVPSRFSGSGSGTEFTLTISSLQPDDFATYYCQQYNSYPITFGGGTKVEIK
notes: Vk1-05 common light chain; also called PD-L1-C2-1; cLC-PDL1 (22726)
For B9, the binding result in the experiment with Cyno PD-L2-Fc, with Human PD-L2-Fc [2], in the experiment with Mouse PD-L2-Fc [10] and in the experiment with Mouse PD-L1-Fc [3] was “no binding (tested: 100 nM)” in each case. Also, the dissociation constant Kd worked out at 0.205 nM with Human PD-L1-Fc [1] and 0.264 nM with Cyno PD-L1-Fc. Also, the “EC50 (read off the curve); luciferase fold induction, Promega CHO-PD-L1 / PD-1 Jurkat assay” value in [12] was about 0.1 nM.

B10: ADI-20230 Fab (Fab, V domains shown)
VH: QVQLVQSGAEVKKPGSSVKVSCKASGGTFSSYFISWVRQAPGQGLEWMGQIIPNVGTANYAQKFQGRVTITADESTSTAYMELSSLRSEDTAVYYCARDQTAKAHLVWGQGTLVTVSS
VL: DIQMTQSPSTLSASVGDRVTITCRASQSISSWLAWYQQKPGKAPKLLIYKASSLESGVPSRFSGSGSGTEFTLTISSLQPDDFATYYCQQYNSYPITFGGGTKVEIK
notes: also called cLC-PDL1 (22726) Fab
For the molecule B10, in the experiment with Human PD-L1-Fc [8], the equilibrium dissociation constant (Kd) was 0.823 nM. Also, in the experiment with Human PD-L2-Fc [9], the binding result was “no binding (tested: 100 nM)”.
